Test results from patent US20140274782A1, “AFFINITY REAGENTS AND METHODS FOR DETECTION, PURIFICATION, AND PROTEOMIC ANALYSIS OF METHYLATED PROTEINS” (The Board of Trustees of the Leland Stanford Junior …, priority 2013, published 2014).

B1: HNRNPF (protein, UniProt P52597 1-415, looked up)
Heterogeneous nuclear …: MMLGPEGGEGFVVKLRGLPWSCSVEDVQNFLSDCTIHDGAAGVHFIYTREGRQSGEAFVELGSEDDVKMALKKDRESMGHRYIEVFKSHRTEMDWVLKHSGPNSADSANDGFVRLRGLPFGCTKEEIVQFFSGLEIVPNGITLPVDPEGKITGEAFVQFASQELAEKALGKHKERIGHRYIEVFKSSQEEVRSYSDPPLKFMSVQRPGPYDRPGTARRYIGIVKQAGLERMRPGAYSTGYGGYEEYSGLSDGYGFTTDLFGRDLSYCLSGMYDHRYGDSEFTVQSTTGHCVHMRGLPYKATENDIYNFFSPLNPVRVHIEIGPDGRVTGEADVEFATHEEAVAAMSKDRANMQHRYIELFLNSTTGASNGAYSSQVMQGMGVSAAQATYSGLESQSVSGCYGAGYSGQNSMGGYD
B2: UBA1 (protein, UniProt P22314 2-1058, looked up)
Ubiquitin-like …: SSSPLSKKRRVSGPDPKPGSNCSPAQSVLSEVPSVPTNGMAKNGSEADIDEGLYSRQLYVLGHEAMKRLQTSSVLVSGLRGLGVEIAKNIILGGVKAVTLHDQGTAQWADLSSQFYLREEDIGKNRAEVSQPRLAELNSYVPVTAYTGPLVEDFLSGFQVVVLTNTPLEDQLRVGEFCHNRGIKLVVADTRGLFGQLFCDFGEEMILTDSNGEQPLSAMVSMVTKDNPGVVTCLDEARHGFESGDFVSFSEVQGMVELNGNQPMEIKVLGPYTFSICDTSNFSDYIRGGIVSQVKVPKKISFKSLVASLAEPDFVVTDFAKFSRPAQLHIGFQALHQFCAQHGRPPRPRNEEDAAELVALAQAVNARALPAVQQNNLDEDLIRKLAYVAAGDLAPINAFIGGLAAQEVMKACSGKFMPIMQWLYFDALECLPEDKEVLTEDKCLQRQNRYDGQVAVFGSDLQEKLGKQKYFLVGAGAIGCELLKNFAMIGLGCGEGGEIIVTDMDTIEKSNLNRQFLFRPWDVTKLKSDTAAAAVRQMNPHIRVTSHQNRVGPDTERIYDDDFFQNLDGVANALDNVDARMYMDRRCVYYRKPLLESGTLGTKGNVQVVIPFLTESYSSSQDPPEKSIPICTLKNFPNAIEHTLQWARDEFEGLFKQPAENVNQYLTDPKFVERTLRLAGTQPLEVLEAVQRSLVLQRPQTWADCVTWACHHWHTQYSNNIRQLLHNFPPDQLTSSGAPFWSGPKRCPHPLTFDVNNPLHLDYVMAAANLFAQTYGLTGSQDRAAVATFLQSVQVPEFTPKSGVKIHVSDQELQSANASVDDSRLEELKATLPSPDKLPGFKMYPIDFEKDDDSNFHMDFIVAASNLRAENYDIPSADRHKSKLIAGKIIPAIATTTAAVVGLVCLELYKVVQGHRQLDSYKNGFLNLALPFFGFSEPLAAPRHQYYNQEWTLWDRFEVQGLQPNGEEMTLKQFLDYFKTEHKLEITMLSQGVSMLYSFFMPAAKLKERLDQPMTEIVSRVSKRKLGRHVRALVLELCCNDESGEDVEVPYVRYTIR
B3: EWSR1 (protein, UniProt Q01844 1-656, looked up)
RNA-binding protein EWS: MASTDYSTYSQAAAQQGYSAYTAQPTQGYAQTTQAYGQQSYGTYGQPTDVSYTQAQTTATYGQTAYATSYGQPPTGYTTPTAPQAYSQPVQGYGTGAYDTTTATVTTTQASYAAQSAYGTQPAYPAYGQQPAATAPTRPQDGNKPTETSQPQSSTGGYNQPSLGYGQSNYSYPQVPGSYPMQPVTAPPSYPPTSYSSTQPTSYDQSSYSQQNTYGQPSSYGQQSSYGQQSSYGQQPPTSYPPQTGSYSQAPSQYSQQSSSYGQQSSFRQDHPSSMGVYGQESGGFSGPGENRSMSGPDNRGRGRGGFDRGGMSRGGRGGGRGGMGSAGERGGFNKPGGPMDEGPDLDLGPPVDPDEDSDNSAIYVQGLNDSVTLDDLADFFKQCGVVKMNKRTGQPMIHIYLDKETGKPKGDATVSYEDPPTAKAAVEWFDGKDFQGSKLKVSLARKKPPMNSMRGGLPPREGRGMPPPLRGGPGGPGGPGGPMGRMGGRGGDRGGFPPRGPRGSRGNPSGGGNVQHRAGDWQCPNPGCGNQNFAWRTECNQCKAPKPEGFLPPPFPPPGGDRGRGGPGGMRGGRGGLMDRGGPGGMFRGGRGGDRGGFRGGRGMDRGGFGGGRRGGPGGPPGPLMEQMGGRRGGRGGPGKMDKGEHRQERRDRPY
B4: FTSJD2 (protein, UniProt Q8IYT2 1-770, looked up)
Cap-specific mRNA …: MSKCRKTPVQQLASPASFSPDILADIFELFAKNFSYGKPLNNEWQLPDPSEIFTCDHTELNAFLDLKNSLNEVKNLLSDKKLDEWHEHTAFTNKAGKIISHVRKSVNAELCTQAWCKFHEILCSFPLIPQEAFQNGKLNSLHLCEAPGAFIASLNHYLKSHRFPCHWSWVANTLNPYHEANDDLMMIMDDRLIANTLHWWYFGPDNTGDIMTLKFLTGLQNFISSMATVHLVTADGSFDCQGNPGEQEALVSSLHYCEVVTALTTLGNGGSFVLKMFTMFEHCSINLMYLLNCCFDQVHVFKPATSKAGNSEVYVVCLHYKGREAIHPLLSKMTLNFGTEMKRKALFPHHVIPDSFLKRHEECCVFFHKYQLETISENIRLFECMGKAEQEKLNNLRDCAIQYFMQKFQLKHLSRNNWLVKKSSIGCSTNTKWFGQRNKYFKTYNERKMLEALSWKDKVAKGYFNSWAEEHGVYHPGQSSILEGTASNLECHLWHILEGKKLPKVKCSPFCNGEILKTLNEAIEKSLGGAFNLDSKFRPKQQYSCSCHVFSEELIFSELCSLTECLQDEQVVVPSNQIKCLLVGFSTLRNIKMHIPLEVRLLESAELTTFSCSLLHDGDPTYQRLFLDCLLHSLRELHTGDVMILPVLSCFTRFMAGLIFVLHSCFRFITFVCPTSSDPLRTCAVLLCVGYQDLPNPVFRYLQSVNELLSTLLNSDSPQQVLQFVPMEVLLKGALLDFLWDLNAAIAKRHLHFIIQREREEIINSLQLQN

What was measured:
3×MBT domain of L3MBTL1 = experiment: Triple SILAC pull-down, 3xMBT/3xMBTD355N ratio (cytoplasmic, nuclear and chromatin fractions of 293T cells); assay type: binding, human; conditions: SILAC ratio, pull-down 3xMBT vs 3xMBTD355N; for 3xMBT/D355N UNC Heavy: experiment with UNC0638 in heavy SILAC media; for 3xMBT/D355N UNC Light: experiment with UNC0638 in light SILAC media;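 as to all read-outs here: proteins quantified with MaxQuant, requiring at least two unique peptides and quantification in both label directions, normalized to the mean of proteins from a digested loading control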
G9a and GLP = target: T1, G9a and GLP (Homo sapiens, UniProt Q96KQ7+Q9H9B1); experiment: Triple SILAC pull-down after UNC0638 treatment of 293T cells, DMSO/UNC0638 ratio of protein captured by 3×MBT; assay type: cell-based; parameters: endogenous in cells; host or cells: HEK 293T; conditions: for Relative to UNC0638 UNC Heavy / Relative to UNC0638 UNC Light: SILAC ratio DMSO/UNC0638 of protein pulled down with 3xMBT; for Relative to UNC0638 UNC Heavy: UNC0638 in heavy SILAC media; for Relative to UNC0638 UNC Light: UNC0638 in light SILAC media; for Relative to UNC0638 Average: average of UNC Light and UNC Heavy experiments;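 as to all read-outs here: mass spectrometry (Q-Exactive) SILAC quantitation, DMSO/UNC0638 ratio computed after subtracting 3×MBTD355N mutant pull-down background, only proteins with at least twofold 3×MBT over mutant signal considered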
T1 sequence (Q96KQ7 2-1210 limits assumed): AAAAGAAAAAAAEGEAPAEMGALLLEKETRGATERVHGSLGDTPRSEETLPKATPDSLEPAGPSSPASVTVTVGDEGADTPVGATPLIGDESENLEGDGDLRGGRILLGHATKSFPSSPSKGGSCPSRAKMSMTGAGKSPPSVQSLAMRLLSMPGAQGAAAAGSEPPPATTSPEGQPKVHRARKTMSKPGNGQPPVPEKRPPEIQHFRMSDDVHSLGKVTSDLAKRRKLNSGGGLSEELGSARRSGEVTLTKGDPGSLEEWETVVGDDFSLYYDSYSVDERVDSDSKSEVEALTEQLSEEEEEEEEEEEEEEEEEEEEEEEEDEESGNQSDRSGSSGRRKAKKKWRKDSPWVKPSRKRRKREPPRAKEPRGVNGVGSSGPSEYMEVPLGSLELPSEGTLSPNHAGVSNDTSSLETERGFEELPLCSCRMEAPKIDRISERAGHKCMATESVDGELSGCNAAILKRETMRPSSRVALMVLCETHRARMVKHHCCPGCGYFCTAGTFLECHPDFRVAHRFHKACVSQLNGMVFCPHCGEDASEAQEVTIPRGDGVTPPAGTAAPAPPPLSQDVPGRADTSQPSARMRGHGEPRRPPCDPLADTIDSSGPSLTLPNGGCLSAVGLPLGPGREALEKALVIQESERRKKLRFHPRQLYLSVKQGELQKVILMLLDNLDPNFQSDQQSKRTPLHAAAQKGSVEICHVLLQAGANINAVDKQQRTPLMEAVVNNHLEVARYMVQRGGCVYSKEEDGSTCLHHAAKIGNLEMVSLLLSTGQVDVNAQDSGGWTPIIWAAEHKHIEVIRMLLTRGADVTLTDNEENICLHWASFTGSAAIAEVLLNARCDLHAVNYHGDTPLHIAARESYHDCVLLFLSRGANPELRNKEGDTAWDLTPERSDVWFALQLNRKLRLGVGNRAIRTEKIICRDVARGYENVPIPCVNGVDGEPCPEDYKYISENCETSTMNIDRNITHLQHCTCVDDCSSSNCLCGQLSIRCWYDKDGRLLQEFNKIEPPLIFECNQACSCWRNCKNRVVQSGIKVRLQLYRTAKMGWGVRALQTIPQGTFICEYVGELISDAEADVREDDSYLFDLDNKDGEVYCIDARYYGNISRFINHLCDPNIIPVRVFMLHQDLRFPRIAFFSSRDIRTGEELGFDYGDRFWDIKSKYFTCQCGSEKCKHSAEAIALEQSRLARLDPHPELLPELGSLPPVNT
T1 sequence (Q9H9B1 2-1298 limits assumed): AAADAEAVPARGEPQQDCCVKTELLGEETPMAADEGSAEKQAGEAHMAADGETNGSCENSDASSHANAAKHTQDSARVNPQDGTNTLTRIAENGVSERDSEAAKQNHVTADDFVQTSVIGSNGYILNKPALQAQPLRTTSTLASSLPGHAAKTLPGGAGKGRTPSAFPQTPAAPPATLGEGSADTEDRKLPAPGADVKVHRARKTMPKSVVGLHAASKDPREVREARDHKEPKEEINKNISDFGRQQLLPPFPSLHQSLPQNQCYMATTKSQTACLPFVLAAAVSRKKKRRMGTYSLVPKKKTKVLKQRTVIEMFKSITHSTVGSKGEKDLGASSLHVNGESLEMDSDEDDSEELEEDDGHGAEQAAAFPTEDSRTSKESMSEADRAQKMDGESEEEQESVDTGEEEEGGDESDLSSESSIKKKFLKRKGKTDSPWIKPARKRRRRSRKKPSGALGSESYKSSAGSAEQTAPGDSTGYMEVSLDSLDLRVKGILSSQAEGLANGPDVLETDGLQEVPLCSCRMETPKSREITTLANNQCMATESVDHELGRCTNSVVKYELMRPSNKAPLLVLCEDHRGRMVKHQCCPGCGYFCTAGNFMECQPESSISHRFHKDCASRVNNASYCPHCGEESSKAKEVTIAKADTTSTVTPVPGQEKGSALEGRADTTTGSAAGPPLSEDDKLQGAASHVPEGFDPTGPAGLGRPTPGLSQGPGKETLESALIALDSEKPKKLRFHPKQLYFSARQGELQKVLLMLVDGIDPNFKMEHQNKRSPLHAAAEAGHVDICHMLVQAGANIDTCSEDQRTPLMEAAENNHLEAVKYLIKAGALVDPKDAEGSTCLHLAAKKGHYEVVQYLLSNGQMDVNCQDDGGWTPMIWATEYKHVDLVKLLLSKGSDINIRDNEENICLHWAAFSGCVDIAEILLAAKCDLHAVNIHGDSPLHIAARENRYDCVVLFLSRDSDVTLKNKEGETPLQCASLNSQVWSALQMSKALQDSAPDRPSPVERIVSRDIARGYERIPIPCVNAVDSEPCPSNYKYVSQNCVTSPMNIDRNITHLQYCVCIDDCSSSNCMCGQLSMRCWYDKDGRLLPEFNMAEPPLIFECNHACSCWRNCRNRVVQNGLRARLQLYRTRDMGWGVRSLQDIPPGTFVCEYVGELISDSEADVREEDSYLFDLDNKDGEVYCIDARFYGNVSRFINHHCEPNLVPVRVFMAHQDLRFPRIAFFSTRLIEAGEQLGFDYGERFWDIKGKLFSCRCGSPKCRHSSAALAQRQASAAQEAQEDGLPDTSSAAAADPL

Row | Molecule | 3xMBT/D355N UNC Heavy (3×MBT domain of L3MBTL1) [log base 2] | 3xMBT/D355N UNC Light (3×MBT domain of L3MBTL1) [log base 2] | Relative to UNC0638 UNC Heavy (G9a and GLP) [log base 2] | Relative to UNC0638 UNC Light (G9a and GLP) [log base 2] | Relative to UNC0638 Average (G9a and GLP) [log base 2]
1 | B1 | 1.66 | 2.25 | 0.28 | −0.02 | 0.13
2 | B2 | 0.55 | 2.51 | – | 0.13 | 0.13
3 | B3 | 2.09 | 2.82 | −0.11 | 0.38 | 0.14
4 | B4 | 2.92 | 3.09 | 0.09 | 0.17 | 0.13
